Measured values reported in the supplement of paper PMC9112550, “Optimization of the antimicrobial peptide Bac7 by deep mutational scanning” (BMC Biology, 2022).

test system: Escherichia coli TOP10; assay: shrunken log2 fold change of peptide-encoding DNA abundance (4.5 h post-induction vs induction); higher = less antimicrobial activity (less host growth inhibition); details: time post-induction: 4.5 h; library: site-saturation at positions 5, 18, 19, 20
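Also: peptides expressed intracellularly from a pBAD plasmid library in pooled LB shake-flask culture, induced with 0.3% L-arabinose, DNA abundance read by NGS, three biological replicates, DESeq2 with apeglm shrinkage.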

Sequence | shrunken log2 fold change
RRIRPRPPRLPRPRPRPIKYPRP | 0.32
RRIRSRPPRLPRPRPRPWWVPRP | -0.2
RRIRQRPPRLPRPRPRPKAVPRP | -0.00151
RRIRDRPPRLPRPRPRPLCKPRP | -0.224
RRIRHRPPRLPRPRPRPQPAPRP | -0.0767
RRIRTRPPRLPRPRPRPNDYPRP | -0.523
RRIRERPPRLPRPRPRPRFFPRP | -0.00349
RRIRNRPPRLPRPRPRPEIMPRP | 0.0538
RRIRNRPPRLPRPRPRPAVAPRP | 0.339
RRIRPRPPRLPRPRPRPVAWPRP | 0.225
RRIRMRPPRLPRPRPRPFGHPRP | -0.0287
RRIRWRPPRLPRPRPRPNSDPRP | -0.258
RRIRGRPPRLPRPRPRPWATPRP | 0.959
RRIRFRPPRLPRPRPRPQLHPRP | 0.381
RRIRKRPPRLPRPRPRPFKQPRP | 0.0339
RRIRARPPRLPRPRPRPVLIPRP | -0.179
RRIRNRPPRLPRPRPRPQDNPRP | 0.0553
RRIRYRPPRLPRPRPRPIFQPRP | -0.568
RRIRYRPPRLPRPRPRPPKKPRP | -0.0754
RRIRNRPPRLPRPRPRPDIFPRP | -0.172

Sequence | shrunken log2 fold change
RRIRFRPPRLPRPRPRPEATPRP | 0.565
RRIRMRPPRLPRPRPRPSAFPRP | 1.26
RRIRCRPPRLPRPRPRPIAIPRP | -0.443
RRIRPRPPRLPRPRPRPSTLPRP | -0.139
RRIRLRPPRLPRPRPRPYRFPRP | 0.0498
RRIRLRPPRLPRPRPRPPDYPRP | -0.199
RRIRQRPPRLPRPRPRPECTPRP | 0.0484
RRIRYRPPRLPRPRPRPHQDPRP | -0.0582
RRIRMRPPRLPRPRPRPCIVPRP | -0.0122
RRIRARPPRLPRPRPRPHLKPRP | 0.01
RRIRWRPPRLPRPRPRPDDQPRP | -0.0297
RRIRKRPPRLPRPRPRPYKPPRP | -0.0134
RRIRMRPPRLPRPRPRPVSKPRP | 0.0965
RRIRTRPPRLPRPRPRPWLEPRP | 0.218
RRIRQRPPRLPRPRPRPHRAPRP | -0.137
RRIRNRPPRLPRPRPRPKKCPRP | -0.209
RRIRARPPRLPRPRPRPMGDPRP | -0.0121
RRIRFRPPRLPRPRPRPCIAPRP | -0.166
RRIRNRPPRLPRPRPRPGYFPRP | -0.541
RRIRSRPPRLPRPRPRPCYDPRP | -0.438

Sequence | shrunken log2 fold change
RRIRQRPPRLPRPRPRPHIDPRP | -0.224
RRIRARPPRLPRPRPRPPIFPRP | 0.25
RRIRARPPRLPRPRPRPTMKPRP | 0.296
RRIRFRPPRLPRPRPRPFMQPRP | -0.675
RRIRTRPPRLPRPRPRPTMQPRP | 0.0459
RRIRKRPPRLPRPRPRPCCHPRP | -1.07
RRIRRRPPRLPRPRPRPWTMPRP | -0.257
RRIRGRPPRLPRPRPRPQKMPRP | 0.331
RRIRERPPRLPRPRPRPLGCPRP | -0.166
RRIRVRPPRLPRPRPRPWELPRP | -0.487
RRIRPRPPRLPRPRPRPMRNPRP | 0.905
RRIRMRPPRLPRPRPRPFWPPRP | 1.3
RRIRMRPPRLPRPRPRPYDGPRP | -0.0589
RRIRTRPPRLPRPRPRPHAGPRP | -0.0835
RRIRIRPPRLPRPRPRPGKFPRP | -0.0679
RRIRFRPPRLPRPRPRPVDQPRP | 0.0138
RRIRCRPPRLPRPRPRPFGVPRP | -0.0152
RRIRIRPPRLPRPRPRPAELPRP | -0.0331
RRIRWRPPRLPRPRPRPDVRPRP | -0.0136
RRIRVRPPRLPRPRPRPRGMPRP | 0.274
